According to US20250236682A1 (CENTENAIRE BIOSCIENCES, published 2025):
One block for each binder: values may come before it.

Assays:
[1] = target: T1, human HER2 recombinant protein (R&D systems, 1129-ER) (human, UniProt P04626 23-652); experiment: BLI, HER2 on HIS1K sensor
T1 construct: extracellular domain; also called HER2 antigen; HER2 extracellular domain (ECD)

[2] = target: T2, human FcγRI (R&D systems, 1257-FC) (human, UniProt P12314 16-288); experiment: BLI, His-FcγRI on HIS1K sensor
T2 construct: bought; also called FcγRI(CD64); Fcγ receptor 1
T2 sequence (P12314 16-288 limits assumed): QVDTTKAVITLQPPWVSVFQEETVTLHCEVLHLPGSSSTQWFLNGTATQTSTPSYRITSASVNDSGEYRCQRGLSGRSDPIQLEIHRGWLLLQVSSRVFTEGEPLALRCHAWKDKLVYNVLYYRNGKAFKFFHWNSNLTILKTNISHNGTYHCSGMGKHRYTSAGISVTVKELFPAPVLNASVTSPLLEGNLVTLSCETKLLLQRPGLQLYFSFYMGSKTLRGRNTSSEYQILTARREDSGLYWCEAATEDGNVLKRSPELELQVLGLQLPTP

[3] = target: T3, human FcγRIIIA (176V isoform, R&D systems, 4325-FC) (human, UniProt P08637 17-208); experiment: BLI, His-FcγRIIIA on HIS1K sensor
T3 construct: bought; also called FcγRIIIA(CD16A, 176V); Fcγ receptor 3A (176V isoform)
T3 sequence (P08637 17-208 F176V limits assumed): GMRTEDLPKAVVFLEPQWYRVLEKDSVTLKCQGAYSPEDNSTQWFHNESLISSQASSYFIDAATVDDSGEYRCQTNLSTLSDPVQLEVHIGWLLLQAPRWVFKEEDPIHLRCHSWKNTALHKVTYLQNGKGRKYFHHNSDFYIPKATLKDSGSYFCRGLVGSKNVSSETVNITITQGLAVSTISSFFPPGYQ

[4] = target: T1, human HER2 recombinant protein (R&D …); experiment: BLI, HER2 on HIS1K sensor, 1 to 32 nM antibody
[5] = target: T4, neonatal Fc receptor (FcRn) (Homo sapiens (Human), UniProt P55899 24-297; P61769 21-119); experiment: BLI, antibody on FAB2G sensor, FcRn analyte, pH 6.0
T4 construct: analyte in solution at pH 6.0; copies: 1 + 1

B1: H01Fv1 (antibody, human IgG1)
heavy: not shown
light: not shown
chain: DKTHTCPPCPAPELLGGPSVFLFPPKPKDTLMISRTPEVTCVVVDVSHEDPEVKFNWYVDGVEVHNAKTKPREEQYNSTYRVVSVLTVLHQDWLNGKEYKCKVSNKALPAPIEKTISKAKGQPREPQVCTLPPSREEMTKNQVSLSCAVKGFYPSDIAVEWESNGQPENNYKTTPPVLDSDGSFFLVSKLTVDKSRWQQGNVFSCSVMHEALHNRFTQKSLSLSPGK
notes: also called Fv-(Fc)2, VH G44C / VL Q100C
Kd [1]: 0.244 nM | koff [1]: 5.11e-05 s⁻¹ | kon [1]: 210000 M⁻¹ s⁻¹

B3: H01Fv7 (antibody, human IgG1, kappa)
heavy: not shown
light: not shown
chain: DKTHTCPPCPAPELLGGPSVFLFPPKPKDTLMISRTPEVTCVVVDVSHEDPEVKFNWYVDGVEVHNAKTKPREEQYNSTYRVVSVLTVLHQDWLNGKEYKCKVSNKALPAPIEKTISKAKGQPREPQVCTLPPSREEMTKNQVSLSCAVKGFYPSDIAVEWESNGQPENNYKTTPPVLDSDGSFFLVSKLTVDKSRWQQGNVFSCSVMHEALHNRFTQKSLSLSPGK
notes: also called Fv-(Fc)2, VH G44C, Q105C, F126C / VL Q100C, A43C, S121C
Kd [1]: 0.279 nM | koff [1]: 7.7e-05 s⁻¹ | kon [1]: 276000 M⁻¹ s⁻¹

B5: H01DE4 (antibody, human IgG1, kappa)
heavy: not shown
light: not shown
chain: DKTHTCPPCPAPELLGGPDVFLFPPKPKDTLMISRTPEVTCVVVDVSHEDPEVKFNWYVDGVEVHNAKTKPREEQYNSTYRVVSVLTVLHQDWLNGKEYKCKVSNKALPAPEEKTISKAKGQPREPQVCTLPPSREEMTKNQVSLSCAVKGFYPSDIAVEWESNGQPENNYKTTPPVLDSDGSFFLVSKLTVDKSRWQQGNVFSCSVMHEALHNHYTQKSLSLSPGK
notes: monovalent Fab-(Fc)2; also called H01 with S239D and I332E in all Fc chains
Kd [2]: 0.036 nM | koff [2]: 3.06e-05 s⁻¹ | kon [2]: 852000 M⁻¹ s⁻¹ | Kd [3]: 0.1 nM | koff [3]: 5.51e-05 s⁻¹ | kon [3]: 526000 M⁻¹ s⁻¹ | Kd [4]: 0.145 nM | koff [4]: 3.73e-05 s⁻¹ | kon [4]: 258000 M⁻¹ s⁻¹

B7: H01Fv2 (antibody, human IgG1)
heavy: not shown
light: not shown
chain: DKTHTCPPCPAPELLGGPSVFLFPPKPKDTLMISRTPEVTCVVVDVSHEDPEVKFNWYVDGVEVHNAKTKPREEQYNSTYRVVSVLTVLHQDWLNGKEYKCKVSNKALPAPIEKTISKAKGQPREPQVCTLPPSREEMTKNQVSLSCAVKGFYPSDIAVEWESNGQPENNYKTTPPVLDSDGSFFLVSKLTVDKSRWQQGNVFSCSVMHEALHNRFTQKSLSLSPGK
notes: also called Fv-(Fc)2, VH Q105C / VL A43C
Kd [1]: 0.324 nM | koff [1]: 3.78e-05 s⁻¹ | kon [1]: 117000 M⁻¹ s⁻¹

B8: P01DE4 (antibody, human IgG1, kappa)
heavy: not shown
light: not shown
chain: DKTHTCPPCPAPELLGGPDVFLFPPKPKDTLMISRTPEVTCVVVDVSHEDPEVKFNWYVDGVEVHNAKTKPREEQYNSTYRVVSVLTVLHQDWLNGKEYKCKVSNKALPAPEEKTISKAKGQPREPQVCTLPPSREEMTKNQVSLSCAVKGFYPSDIAVEWESNGQPENNYKTTPPVLDSDGSFFLVSKLTVDKSRWQQGNVFSCSVMHEALHNHYTQKSLSLSPGK
notes: monovalent Fab-(Fc)2; also called P01 with S239D and I332E in all Fc chains
Kd [2]: 0.038 nM | koff [2]: 2.85e-05 s⁻¹ | kon [2]: 748000 M⁻¹ s⁻¹ | Kd [3]: 0.33 nM | koff [3]: 0.000159 s⁻¹ | kon [3]: 478000 M⁻¹ s⁻¹ | Kd [4]: 0.224 nM | koff [4]: 5.51e-05 s⁻¹ | kon [4]: 246000 M⁻¹ s⁻¹

Second part, the binder after the results:

Kd [1]: 0.326 nM | koff [1]: 7.71e-05 s⁻¹ | kon [1]: 237000 M⁻¹ s⁻¹
B2: H01Fv4 (antibody, human IgG1)
heavy: not shown
light: not shown
chain: DKTHTCPPCPAPELLGGPSVFLFPPKPKDTLMISRTPEVTCVVVDVSHEDPEVKFNWYVDGVEVHNAKTKPREEQYNSTYRVVSVLTVLHQDWLNGKEYKCKVSNKALPAPIEKTISKAKGQPREPQVCTLPPSREEMTKNQVSLSCAVKGFYPSDIAVEWESNGQPENNYKTTPPVLDSDGSFFLVSKLTVDKSRWQQGNVFSCSVMHEALHNRFTQKSLSLSPGK
notes: also called Fv-(Fc)2, VH G44C, Q105C / VL Q100C, A43C

Kd [1]: 0.0487 nM | koff [1]: 6.61e-06 s⁻¹ | kon [1]: 136000 M⁻¹ s⁻¹
B4: H01Fv6 (antibody, human IgG1, kappa)
heavy: not shown
light: not shown
chain: DKTHTCPPCPAPELLGGPSVFLFPPKPKDTLMISRTPEVTCVVVDVSHEDPEVKFNWYVDGVEVHNAKTKPREEQYNSTYRVVSVLTVLHQDWLNGKEYKCKVSNKALPAPIEKTISKAKGQPREPQVCTLPPSREEMTKNQVSLSCAVKGFYPSDIAVEWESNGQPENNYKTTPPVLDSDGSFFLVSKLTVDKSRWQQGNVFSCSVMHEALHNRFTQKSLSLSPGK
notes: also called Fv-(Fc)2, VH Q105C, F126C / VL A43C, S121C

Kd [1]: 0.393 nM | koff [1]: 0.000107 s⁻¹ | kon [1]: 273000 M⁻¹ s⁻¹
B6: H01Fv5 (antibody, human IgG1, kappa)
heavy: not shown
light: not shown
chain: DKTHTCPPCPAPELLGGPSVFLFPPKPKDTLMISRTPEVTCVVVDVSHEDPEVKFNWYVDGVEVHNAKTKPREEQYNSTYRVVSVLTVLHQDWLNGKEYKCKVSNKALPAPIEKTISKAKGQPREPQVCTLPPSREEMTKNQVSLSCAVKGFYPSDIAVEWESNGQPENNYKTTPPVLDSDGSFFLVSKLTVDKSRWQQGNVFSCSVMHEALHNRFTQKSLSLSPGK
notes: also called Fv-(Fc)2, VH G44C, F122C / VL Q100C, S121C

Kd [5]: 322 nM | koff [5]: 0.0154 s⁻¹ | kon [5]: 47900 M⁻¹ s⁻¹
B9: pertuzumab (antibody, V domains shown)
VH: EVQLVESGGGLVQPGGSLRLSCAASGFTFTDYTMDWVRQAPGKGLEWVADVNPNSGGSIYNQRFKGRFTLSVDRSKNTLYLQMNSLRAEDTAVYYCARNLGPSFYFDYWGQGTLVTVSS
VL: DIQMTQSPSSLSASVGDRVTITCKASQDVSIGVAWYQQKPGKAPKLLIYSASYRYTGVPSRFSGSGSGTDFTLTISSLQPEDFATYYCQQYYIYPYTFGQGTKVEIK
